Assay results: patent publication US20190256843A1 (AGILENT TECHNOLOGIES, published 2019)

T1: negative control phosphoprotein AGPADAPAGAVVGGG[S^P/S]PRGRPGPVPAPGLLA fused to N-terminal split mCherry (central residue (position 16 of SEQ ID NO:59) printed as [S^P/S]: phosphoserine with SepOTSλ, serine with tRNA^supD)
T1 construct: also called n.c; (14-3-3 experiment); negative control for the 14-3-3 experiment; not shown: N-terminal split mCherry and linker
T1 chain: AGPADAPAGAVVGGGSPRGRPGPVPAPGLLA

B1: human 14-3-3β fused to C-terminal split mCherry (C-mCh) with C-terminal 6xHis tag (other)
chain: MTMDKSELVQKAKLAEQAERYDDMAAAMKAVTEQGHELSNEERNLLSVAYKNVVGARRSSWRVISSIEQKTERNEKKQQMGKEYREKIEAELQDICNDVLELLDKYLIPNATQPESKVFYLKMKGDYFRYLSEVASGDNKQTTVSNSQQAYQEAFEISKKEMQPTHPIRLGLALNFSVFYYEILNSPEKACSLAKTAFDEAIAELDTLNEESYKDSTLIMQLLRDNLTLWTSENQGDEGDAGEGENELGAAAGGSGGALKGEIKQRLKLKDGGHYDAEVKTTYKAKKPVQLPGAYNVNIKLDITSHNEDYTIVEQYERAEGRHSTGGMDELYKHHHHHH
notes: also called 14-3-3 isoform β
B2: human 14-3-3σ fused to C-terminal split mCherry (C-mCh) with C-terminal 6xHis tag (other)
chain: MERASLIQKAKLAEQAERYEDMAAFMKGAVEKGEELSCEERNLLSVAYKNVVGGQRAAWRVLSSIEQKSNEEGSEEKGPEVREYREKVETELQGVCDTVLGLLDSHLIKEAGDAESRVFYLKMKGDYYRYLAEVATGDDKKRIIDSARSAYQEAMDISKKEMPPTNPIRLGLALNFSVFHYEIANSPEEAISLAKTTFDEAMADLHTLSEDSYKDSTLIMQLLRDNLTLWTADNAGEEGGEAPQEPQSELGAAAGGSGGALKGEIKQRLKLKDGGHYDAEVKTTYKAKKPVQLPGAYNVNIKLDITSHNEDYTIVEQYERAEGRHSTGGMDELYKHHHHHH
notes: also called 14-3-3 isoform σ

Biological target: T1, negative control phosphoprotein …
Experiment: clonal BiFC split mCherry (negative control of the 14-3-3 experiment)

| Binder | binding result |
| --- | --- |
| B1 | no binding |
| B2 | no binding |
